These results are taken from article PMC11098746 (2024).

No end group written: not given here.

B1: ADP302 (protein)
chain: MAAWKSWTALRLCATVVVLDMVVCKGFVEDLDESFKENRNDDIWLVDFYAPWCGHCKKLEPIWNEVGLEMKSIGSPVKVGKMDATSYSSIASEFGVRGYPTIKLLKGDLAYNYRGPRTKDDIIEFAHRVSGALIRPLPSQQMFEHMQKRHRVFFVYVGGESPLKEKYIDAASELIVYTYFFSASEEVVPEYVTLKEMPAVLVFKDETYFVYDEYEDGDLSSWINRERFQNYLAMDGFLLYELGDTGKLVALAVIDEKNTSVEHTRLKSIIQEVARDYRDLFHRDFQFGHMDGNDYINTLLMDELTVPTVVVLNTSNQQYFLLDRQIKNVEDMVQFINNILDGTVEAQGGDSILQRLKRIVFDAKSTIVSIFKSSP
modifications: bait human Fc-tagged dimer
B2: ADP128 (protein)
chain: MAAEGWIWRWGWGRRCLGRPGLLGPGPGPTTPLFLLLLLGSVTADITDGNSEHLKREHSLIKPYQGVGSSSMPLWDFQGSTMLTSQYVRLTPDERSKEGSIWNHQPCFLKDWEMHVHFKVHGTGKKNLHGDGIALWYTRDRLVPGPVFGSKDNFHGLAIFLDTYPNDETTERVFPYISVMVNNGSLSYDHSKDGRWTELAGCTADFRNRDHDTFLAVRYSRGRLTVMTDLEDKNEWKNCIDITGVRLPTGYYFGASAGTGDLSDNHDIISMKLFQLMVEHTPDEESIDWTKIEPSVNFLKSPKDNVDDPTGNFRSGPLT
modifications: bait human Fc-tagged dimer
B3: ADP117 (protein)
chain: MAAPGSARRPLLLLLLLLLLGLMHCASAAMFMVKNGNGTACIMANFSAAFSVNYDTKSGPKNMTFDLPSDATVVLNRSSCGKENTSDPSLVIAFGRGHTLTLNFTRNATRYSVQLMSFVYNLSDTHLFPNASSKEIKTVESITDIRADIDKKYRCVSGTQVHMNNVTVTLHDATIQAYLSNSSFSRGETRCEQDRPSPTTAPPAPPSPSPSPVPKSPSVDKYNVSGTNGTCLLASMGLQLNLTYERKDNTTVTRLLNINPNKTSASGSCGAHLVTLELHSEGTTVLLFQFGMNASSSRFFLQGIQLNTILPDARDPAFKAANGSLRALQATVGNSYKCNAEEHVRVTKAFSVNIFKVWVQAFKVEGGQFGSVEECLLDENSMLIP
modifications: bait human Fc-tagged dimer
B4: ADP104 (protein)
chain: MEPPDAPAQARGAPRLLLLAVLLAAHPDAQAEVRLSVPPLVEVMRGKSVILDCTPTGTHDHYMLEWFLTDRSGARPRLASAEMQGSELQVTMHDTRGRSPPYQLDSQGRLVLAEAQVGDERDYVCVVRAGAAGTAEATARLNVFAKPEATEVSPNKGTLSVMEDSAQEIATCNSRNGNPAPKITWYRNGQRLEVPVEMNPEGYMTSRTVREASGLLSLTSTLYLRLRKDDRDASFHCAAHYSLPEGRHGRLDSPTFHLTLHYPTEHVQFWVGSPSTPAGWVREGDTVQLLCRGDGSPSPEYTLFRLQDEQEEVLNVNLEGNLTLEGVTRGQSGTYGCRVEDYDAADDVQLSKTLELRVAYLDPLELSEGKVLSLPLNSSAVVNCSVHGLPTPALRWTKDSTPLGDGPMLSLSSITFDSNGTYVCEASLPTVPVLSRTQNFTLLVQGSPELKTAEIEPKADGSWREGDEVTLICSARGHPDPKLSWSQLGGSPAEPIPGRQGWVSSSLTLKVTSALSRDGISCEASNPHGNKRHVFHFGTVSPQTSQAG
modifications: bait human Fc-tagged dimer
B5: ADP154 (protein)
chain: MAGKWLLCMLLVLGTAIVEAHDGHDDDVIDIEDDLDDVIEEVEDSKPDTTAPPSSPKVTYKAPVPTGEVYFADSFDRGTLSGWILSKAKKDDTDDEIAKYDGKWEVEEMKESKLPGDKGLVLMSRAKHHAISAKLNKPFLFDTKPLIVQYEVNFQNGIECGGAYVKLLSKTPELNLDQFHDKTPYTIMFGPDKCGEDYKLHFIFRHKNPKTGIYEEKHAKRPDADLKTYFTDKKTHLYTLILNPDNSFEILVDQSVVNSGNLLNDMTPPVNPSREIEDPEDRKPEDWDERPKIPDPEAVKPDDWDEDAPAKIPDEEATKPEGWLDDEPEYVPDPDAEKPEDWDEDMDGEWEAPQIANPRCESAPGCGVWQRPVIDNPNYKGKWKPPMIDNPSYQGIWKPRKIPNPDFFEDLEPFRMTPFSAIGLELWSMTSDIFFDNFIICADRRIVDDWANDGWGLKKAADGAAEPGVVGQMIEAAEERP
modifications: bait human Fc-tagged dimer
B6: ADP133 (protein)
chain: MAPLRPLLILALLAWVALADQESCKGRCTEGFNVDKKCQCDELCSYYQSCCTDYTAECKPQVTRGDVFTMPEDEYTVYDDGEEKNNATVHEQVGGPSLTSDLQAQSKGNPEQTPVLKPEEEAPAPEVGASKPEGIDSRPETLHPGRPQPPAEEELCSGKPFDAFTDLKNGSLFAFRGQYCYELDEKAVRPGYPKLIRDVWGIEGPIDAAFTRINCQGKTYLFKGSQYWRFEDGVLDPDYPRNISDGFDGIPDNVDAALALPAHSYSGRERVYFFKGKQYWEYQFQHQPSQEECEGSSLSAVFEHFAMMQRDSWEDIFELLFWGRTSAGTRQPQFISRDWHGVPGQVDAAMAGRIYISGMAPRPSLAKKQRFRHRNRKGYRSQRGHSRGRNQNSRRPSRATWLSLFSSEESNLGANNYDDYRMDWLVPATCEPIQSVFFFSGDKYYRVNLRTRRVDTVDPPYPRSIAQYWLGCPAPGHL
modifications: bait human Fc-tagged dimer
B7: ADP147 (protein)
chain: MAACGRVRRMFRLSAALHLLLLFAAGAEKLPGQGVHSQGQGPGANFVSFVGQAGGGGPAGQQLPQLPQSSQLQQQQQQQQQQQQPQPPQPPFPAGGPPARRGGAGAGGGWKLAEEESCREDVTRVCPKHTWSNNLAVLECLQDVREPENEISSDCNHLLWNYKLNLTTDPKFESVAREVCKSTITEIKECADEPVGKGYMVSCLVDHRGNITEYQCHQYITKMTAIIFSDYRLICGFMDDCKNDINILKCGSIRLGEKDAHSQGEVVSCLEKGLVKEAEEREPKIQVSELCKKAILRVAELSSDDFHLDRHLYFACRDDRERFCENTQAGEGRVYKCLFNHKFEESMSEKCREALTTRQKLIAQDYKVSYSLAKSCKSDLKKYRCNVENLPRSREARLSYLLMCLESAVHRGRQVSSECQGEMLDYRRMLMEDFSLSPEIILSCRGEIEHHCSGLHRKGRTLHCLMKVVRGEKGNLGMNCQQALQTLIQETDPGADYRIDRALNEACESVIQTACKHIRSGDPMILSCLMEHLYTEKMVEDCEHRLLELQYFISRDWKLDPVLYRKCQGDASRLCHTHGWNETSEFMPQGAVFSCLYRHAYRTEEQGRRLSRECRAEVQRILHQRAMDVKLDPALQDKCLIDLGKWCSEKTETGQELECLQDHLDDLVVECRDIVGNLTELESEDIQIEALLMRACEPIIQNFCHDVADNQIDSGDLMECLIQNKHQKDMNEKCAIGVTHFQLVQMKDFRFSYKFKMACKEDVLKLCPNIKKKVDVVICLSTTVRNDTLQEAKEHRVSLKCRRQLRVEELEMTEDIRLEPDLYEACKSDIKNFCSAVQYGNAQIIECLKENKKQLSTRCHQKVFKLQETEMMDPELDYTLMRVCKQMIKRFCPEADSKTMLQCLKQNKNSELMDPKCKQMITKRQITQNTDYRLNPMLRKACKADIPKFCHGILTKAKDDSELEGQVISCLKLRYADQRLSSDCEDQIRIIIQESALDYRLDPQLQLHCSDEISSLCAEEAAAQEQTGQVEECLKVNLLKIKTELCKKEVLNMLKESKADIFVDPVLHTACALDIKHHCAAITPGRGRQMSCLMEALEDKRVRLQPECKKRLNDRIEMWSYAAKVAPADGFSDLAMQVMTSPS
modifications: bait human Fc-tagged dimer
B8: ADP118 (protein)
chain: MARAAALLPSRSPPTPLLWPLLLLLLLETGAQDVRVQVLPEVRGQLGGTVELPCHLLPPVPGLYISLVTWQRPDAPANHQNVAAFHPKMGPSFPSPKPGSERLSFVSAKQSTGQDTEAELQDATLALHGLTVEDEGNYTCEFATFPKGSVRGMTWLRVIAKPKNQAEAQKVTFSQDPTTVALCISKEGRPPARISWLSSLDWEAKETQVSGTLAGTVTVTSRFTLVPSGRADGVTVTCKVEHESFEEPALIPVTLSVRYPPEVSISGYDDNWYLGRTDATLSCDVRSNPEPTGYDWSTTSGTFPTSAVAQGSQLVIHAVDSLFNTTFVCTVTNAVGMGRAEQVIFVRETPNTAGAGAT
modifications: bait human Fc-tagged dimer
B9: ADP273 (protein)
chain: RGSCQACGDSVLVVSEDVNYEPDLDFHQGRLYWSDLQAMFLQFLGEGRLEDTIRQTSLRERVAGSAGMAALTQDIRAALSRQKLDHVWTDTHYVGLQFPDPAHPNTLHWVDEAGKVGEQLPLEDPDVYCPYSAIGNVTGELVYAHYGRPEDLQDLRARGVDPVGRLLLVRVGVISFAQKVTNAQDFGAQGVLIYPEPADFSQDPPKPSLSSQQAVYGHVHLGTGDPYTPGFPSFNQTQFPPVASSGLPSIPAQPISADIASRLLRKLKGPVAPQEWQGSLLGSPYHLGPGPRLRLVVNNHRTSTPINNIFGCIEGRSEPDHYVVIGAQRDAWGPGAAKSAVGTAILLELVRTFSSMVSNGFRPRRSLLFISWDGGDFGSVGSTEWLEGYLSVLHLKAVVYVSLDNAVLGDDKFHAKTSPLLTSLIESVLKQVDSPNHSGQTLYEQVVFTNPSWDAEVIRPLPMDSSAYSFTAFVGVPAVEFSFMEDDQAYPFLHTKEDTYENLHKVLQGRLPAVAQAVAQLAGQLLIRLSHDRLLPLDFGRYGDVVLRHIGNLNEFSGDLKARGLTLQWVYSARGDYIRAAEKLRQEIYSSEERDERLTRMYNVRIMRVEFYFLSQYVSPADSPFRHIFMGRGDHTLGALLDHLRLLRSNSSGTPGATSSTGFQESRFRRQLALLTWTLQGAANALSGDVWNIDNNF
modifications: bait human Fc-tagged dimer
B10: ADP353 (protein)
chain: MAARWRFWCVSVTMVVALLIVCDVPSASAQRKKEMVLSEKVSQLMEWTNKRPVIRMNGDKFRRLVKAPPRNYSVIVMFTALQLHRQCVVCKQADEEFQILANSWRYSSAFTNRIFFAMVDFDEGSDVFQMLNMNSAPTFINFPAKGKPKRGDTYELQVRGFSAEQIARWIADRTDVNIRVIRPP
modifications: bait human Fc-tagged dimer
B11: ADP333 (protein)
chain: MASVVLPSGSQCAAAAAAAAPPGLRLRLLLLLFSAAALIPTGDGQNLFTKDVTVIEGEVATISCQVNKSDDSVIQLLNPNRQTIYFRDFRPLKDSRFQLLNFSSSELKVSLTNVSISDEGRYFCQLYTDPPQESYTTITVLVPPRNLMIDIQKDTAVEGEEIEVNCTAMASKPATTIRWFKGNTELKGKSEVEEWSDMYTVTSQLMLKVHKEDDGVPVICQVEHPAVTGNLQTQRYLEVQYKPQVHIQMTYPLQGLTREGDALELTCEAIGKPQPVMVTWVRVDDEMPQHAVLSGPNLFINNLNKTDNGTYRCEASNIVGKAHSDYMLYVYDPPTTIPPPTT
modifications: bait human Fc-tagged dimer

The target of the test is Circumsporozoite protein (CSP) (Plasmodium falciparum (isolate 3D7), UniProt Q7K740). As to the kind of experiment: AVEXIS screen signal:noise (double-corrected).
Chain of Circumsporozoite protein (CSP) (Q7K740 19-374): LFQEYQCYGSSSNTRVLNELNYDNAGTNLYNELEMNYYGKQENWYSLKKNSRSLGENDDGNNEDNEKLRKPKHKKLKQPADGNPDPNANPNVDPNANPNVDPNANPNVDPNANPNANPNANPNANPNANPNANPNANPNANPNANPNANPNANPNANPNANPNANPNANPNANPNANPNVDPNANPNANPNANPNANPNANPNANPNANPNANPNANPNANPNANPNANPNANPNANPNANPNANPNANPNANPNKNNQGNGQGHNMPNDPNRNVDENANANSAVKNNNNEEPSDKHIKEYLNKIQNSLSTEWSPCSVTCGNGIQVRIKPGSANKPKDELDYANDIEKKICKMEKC
With B1, the binding score came out at 1.19.

B2 showed a binding score of 1.03.

B3: the binding score is 0.992.

Molecule B4 showed a binding score of 1.08.

As for B5, the binding score came to 0.77.

For MASLGHILVFCVGLLTMAKAESPKEHDPFTYDYQS (also: human Fc-tagged dimer) [ADP327], the binding score turned out to be 1.89.

As to B6, the binding score worked out at 1.13.

Regarding B7, the binding score came out at 0.989.

In the case of B8, the binding score was determined as 0.743.

The molecule B9 came in with a binding score of 0.72.

For the molecule B10, the binding score stood at 1.49.

B11 showed a binding score of 1.11.
